Measured values as given in patent US11904004B2, “Anti-CD277 antibodies” (INSTITUT NATIONAL DE LA SANTE ET DE LA RECHERCHE MEDICALE …, priority 2010, dated 2024).
Several values for one entry are separate records, joined by “and”; a condition that tells them apart may be missing. Identical values can stand only once.

How the values were obtained:
Format in all cases: cell-based, human
NK cells = assay: Functional assay on NK cells, redirected cytolytic activity
Protocol: Fresh NK cells were sorted with EASY SEP® negative selection kit and incubated over night in medium completed with sub-optimal concentrations of IL-2 (100 U/ml) and IL-15 (10 ng/ml). NK cell receptors functions were tested in re-directed cytolytic experiments against the FcγR positive P815 mastocytoma murine cell line. Briefly, effector cells were incubated with P815 cells pre-coated for 30 minutes with the mAb of interest (irrelevant mouse IgG1: 11 μg/ml, anti-NKp46: 1 μg/ml, anti-DNAM: 5 μg/ml, anti-CD277 20.1: 10 μg/ml) according to a 1:1 Effector:Target (E/T) ratio. Cytotoxic tests were performed in 4-hours assays in the presence of GOLGISTOP® (protein transport inhibitor) and soluble CD107 (a&b)-FITC (both from BD Biosciences), afterward cells were stained for surface markers (CD56-PeCy7 (Beckman Coulter, Immunotech), fixed and permeabilized (CYTOFIX/CYTOPERM®) then stained with intracellular mAb (IFN-γ (Beckman Coulter, Immunotech)). Cells were finally re-suspended in PBS 2% para-formaldehyde and extemporaneously analyzed on a BD FACS CANTO® (BD Biosciences, San Jose, Calif.). The degree of activation of NK cells was measured based on the percentage of cells positive for CD107a and CD107b (degranulation) and/or the production of inflammatory cytokine (IFN-γ).

CD4+ T cells [1] = assay: AKT and ERK phosphorylation, phosphoflow
Protocol: Human CD4^+ T cells were purified by negative selection from PBMCs using magnetic beads (MILTENYI BIOTEC®) according to the manufacturer's protocol. CD4 T cells were routinely more than 97% pure. Cells were incubated 24 hours in RPMI 1640 10% FBS at 37° C.
CD4^+ T cells were washed and stimulated at different times (2, 5, 10 and 30 minutes) with aAPC at a ratio of 1:3 (cells to beads) comprised of magnetic beads (DYNABEADS® M-450 Epoxy, Dynal Biotech) were coated with the following mAbs: anti-CD3 (OKT3), anti-human CD28 (CD28.2), and/or various concentrations of anti-human CD277 (CD277. 20.1 clone) or isotype control IgG1. These aAPCs were coated with suboptimal anti-CD3 Ab (5%), suboptimal levels of anti-CD28 Ab (10%), and either IgG1 Ab (CD3/CD28/IgG1), anti-CD277.20.1 Ab (CD3/CD28/CD277.20.1+IgG1), constituting the remaining 85% of protein added to the bead. The amount of protein was kept constant at […] by the addition of control IgG1. We examined the effect of mAbs CD277 clones engagement on AKT and ERK phosphorylation in CD4+T cells by PHOSPHOFLOW® proteomic method, which uses state-specific antibodies to detect target phosphoproteins by fluorescence-activated cell sorting (FACS). We assessed the activity of the signalling pathways after exposure of the cells to beads stimulations. We apply a sandwich-labeling method, which involves the application of a biotin-conjugated secondary antibody followed by detection with fluorescently conjugated streptavidin. […] Cells were permeabilized, fixed and analyzed after intracellular staining of the target phosphproteins (AKT and ERK) by the use of CYTOFIX/CYTOPERM® KIT and perm/wash buffer (BD Biosciences).

CD4+ T cells [2] = assay: Functional assay on CD4+ T cells with aAPC, CFSE labeling and cytokine ELISA
Protocol: Human CD4^+ T cells were purified by negative selection from PBMCs using magnetic beads (Miltenyi Biotec) according to the manufacturer's protocol. CD4+ T cells were routinely more than 97% pure.
CD4^+ T cells were labelled with 0.5 μM CFSE (Invitrogen) for 10 min at 37° C., washed and stimulated (1.5×10^5 cells/well) with aAPC at a ratio of 1:1 (cells to beads) comprised of magnetic beads in triplicate in 96-well round-bottom plates (Falcon; BD Biosciences). Cultures were incubated at 37° C., 5% CO2 for 5 days and then proliferation of CFSE labelled CD4^+ T cells were measured by flow cytometry (FACS Canto, […]).
Magnetic beads (DYNABEADS® M-450 Epoxy, Dynal Biotech) were coated with the following mAbs as described in Serriari et al. (serriari, ji 2010): anti-CD3 (OKT3), anti-human CD28 (CD28.2), and/or various concentrations of anti-human CD277 (CD277, 20.1) or IgG1 or anti-MHC class I (MHC I) (YJ4) or IgG1. These aAPCs were coated with suboptimal anti-CD3 Ab (5%), suboptimal levels of anti-CD28 Ab (10%), and either IgG1 Ab (CD3/CD28/IgG1), anti-CD277 Ab (CD3/CD28/CD277+IgG1) or anti-MHC class I (CD3/28/anti-MHC class I+IgG1), constituting the remaining 85% of protein added to the bead. The amount of protein was kept constant at […] by the addition of control IgG 1. […]

[3] = test system: immature dendritic cells (iDC); assay: Apoptosis detection (Annexin V), survival of iDC; conditions: plastic-coated mAb or GM-CSF, 72-h culture, representative value and range of five experiments, listed as anti-BT3 mAb
Protocol: Blood samples were obtained from 5 healthy volunteers enrolled among the staff members, after informed consent. Monocytes were separated from peripheral blood mononuclear cells, and isolated using the MACS CD14 isolation kit (Miltenyi Biotech, Auburn, Calif. USA). Monocytes were cultured for 5 days with 200 ng/ml of recombinant human GM-CSF and 10 ng/ml recombinant human IL-4 (Schering-Plough Research Institute). These cells were termed immature dendritic cells (iDC). To achieve the stimulation, monocytes and iDC were cultured with 10 ng/ml of LPS, ligand for TLR4, 30 μg/ml of 8848 (Sigma-Aldrich, Milano, Italy), ligand for TLR7/8 and with […] of poly (I:C) (Sigma-Aldrich), ligand for TLR3, and were harvested after 48 h. The cells were cultured in RPMI 1640 supplemented with 10% heat-inactivated FCS, 5 mM L-glutamine and 50 IU/ml penicillin-streptomycin (from here on referred to as complete medium).
Monocytes and iDC were cultured on plastic coated with anti-BT3 mAb (clone 20.1) or with isotype-matched irrelevant mAb. As control, the cells were stimulated with 20 ng/ml recombinant human GM-CSF (Schering-Plough Research Institute). After three days, cells were harvested, stained with Annexin V-FITC (Bender MedSystems, Wien, Austria) and analysed by flow cytometry.

[4] = with anti-NKp46 or anti-CD16, data not shown
[5] = antibody-coated beads, anti-CD3 plus anti-CD277
[6] = with anti-CD3 plus anti-CD28, 2, 5, 10 and 30 minutes, dose and time dependent

B1: mAb 20.1: murine anti-CD277 antibody obtainable from the hybridoma CNCM I-4402; agonist (antibody, V domains shown)
VH: QVQLQQSGAELVKPGASVKLSCKASGYTFTRYYLYWVKQRPGQGLEWIGEINPNNGGTKFNEKFKSKATLTVDKSSRTTYIQLSSLTSEDSAVYYCSREDDYDGTPDAMDYWGQGTAVTVSS
VL: DIQMNQSPSSLSASLGDTITITCHASQNINLWLSWYQQRPGNIPKLLIYRASNLHTGVPSRFSGSGSATGFTLTISSLQPEDIATYYCQQGHSYPYTFGGGTKLDIK
- NK cell stimulation by CD277 mAb alone (NK cells; P815 redirected assay): did not have any effect
- NK cell IFN-γ secretion, co-stimulation of NKp46 or CD16 (NK cells; [4]): not affected
- NK cell cytotoxicity, co-stimulation of NKp46 or CD16 (NK cells; [4]): not affected
- phosphorylation of AKT (CD4+ T cells [1]; [5]): induced the phosphorylation
- phosphorylation of ERK (CD4+ T cells [1]; [5]): induced the phosphorylation
- phosphorylation of AKT induced by CD3+CD28 stimulation (CD4+ T cells [1]; [6]): strongly up regulated
- phosphorylation of ERK induced by CD3+CD28 stimulation (CD4+ T cells [1]; [6]): strongly up regulated
- secretion of cytokines induced by anti-CD3 and anti-CD28 stimulation (INFg, IL-2, IL-10) (CD4+ T cells [2]; dose-dependent, supernatants day 2): increased
- cells entered division (CFSE dilution) (CD4+ T cells [2]; with anti-CD3 plus anti-CD28 on beads, day 5, anti-CD277 at 17 μg/ml): 90%
- healthy-vital (surviving) iDC [3]: 56.75% and 53.13-60.71%
